Data: paper PMC10087552, “Non‐canonical binding of the Chaetomium thermophilum PolD4 N‐terminal PIP motif to PCNA involves Q‐pocket and compact 2‐fork plug interactions but no 3_10 helix” (The Febs Journal, 2022)
Values belong to the molecule of their own block, whether it stands above or below them.

Assays:
[1] = target: human PCNA; details: human PCNA–p12 PIP peptide interaction; ref [25]; read-out: dissociation constant (K D); cited from earlier work
Description: To examine the interaction between the Ct PolD4 PIP motif and Ct PCNA in greater detail and in the absence of GST, isothermal titration calorimetry (ITC) was used to determine the binding affinity of PCNA for a 15 amino acid synthetic PolD4 PIP peptide (sequence: ^21KHQSTLNFKHRVTKP^35) and the stoichiometry of the interaction (Fig. 4C). The dissociation constant (K D) was determined to be 22 ± 0.6 μM at 25 °C, broadly similar to that reported for the human PCNA–p12 PIP peptide interaction (38 ± 4 μM). The stoichiometry was determined to be 1 : 1 (i.e. 1 peptide : 1 PCNA protomer) indica ... || Three amino acids are key to interactions between Ct PolD4 and Ct PCNA: Gln23, Leu26 and Phe28. All three are strictly conserved in PolD4 proteins from fungal species closely related to C. thermophilum (Fig. 3). The sidechain of Gln23 inserts into the Q‐pocket on PCNA while the sidechains of Leu26 and Phe28 insert into the hydrophobic pocket located under the interdomain connector loop (IDCL) on the surface of PCNA (Figs 5 and 6A, upper left panel). The human p12 protein lacks the glutamine, equivalent to Gln23, that marks the start of the canonical PIP motif (Qxxψxxθθ), instead having a lysin ...

[2] = target: Chaetomium thermophilum PCNA (proliferating cell nuclear antigen) (Chaetomium thermophilum); experiment: crystal structure; co-crystallisation of Ct PCNA with the peptide; 0.2 M calcium acetate, 0.1 M sodium cacodylate pH 6.5, 36% PEG 300; 2.45 Å, space group P1, two trimers in the asymmetric unit
[3] = target: Chaetomium thermophilum PCNA (proliferating cell nuclear antigen) (Chaetomium thermophilum); experiment: crystal structure; apo Ct PCNA; 0.1 M PTCP buffer pH 5.0, 25% PEG 1500; 2.34 Å, space group H3, a single chain in the asymmetric unit
[4] = target: Chaetomium thermophilum PCNA (proliferating cell nuclear antigen) (Chaetomium thermophilum); experiment: ITC; Ct PolD4 PIP peptide (400 uM) titrated into Ct PCNA (30 uM) in the cell, 25 °C, 50 mM Tris-HCl, 50 mM NaCl, pH 8.0; single-site binding model; duplicate

Molecule: RKRLITDSYPVV [human p12 PIP peptide, N‐terminal PIP motif peptide of the human Pol δ subunit p12 (PolD4)]
- Kd [1]: 38 ± 4 µM

- stoichiometry N [2]: 3 protomers
- stoichiometry N [3]: 3 protomers
Molecule: Chaetomium thermophilum PCNA (proliferating cell nuclear antigen) (natural protein)

- Kd [4]: 22 µM
- stoichiometry N (peptide per PCNA protomer) [4]: 1
B1: Ct PolD4 PIP peptide (residues 21-35 of Chaetomium thermophilum PolD4) (peptide)
peptide: KHQSTLNFKHRVTKP
